The record followed here is patent US20230399408A1 (AB THERAPEUTICS, published 2023).

Assay [1] has as its target cMET (UniProt P08581). Briefly: BLI (Probelife).
The target of assay [2] is c-MET-His tag protein (human) (UniProt P08581). Briefly: titration ELISA, c-MET-His coated. Background: ELISA stands for enzyme-linked immunosorbent assay.
A further assay concerns the target EGFR (UniProt P00533). Nature of the assay: separate experiment, method not restated (BLI in this example), EGFR binding.
Assay [3] concerns the target cMET (UniProt P08581). Nature of the assay: separate experiment, method not restated (BLI in this example), cMET binding.
In assay [4] the target is EGFR mutant C797S on BaF3 cells (UniProt P00533). Nature of the assay: flow cytometry on EGFR mutant C797S-BaF3 cells, goat anti-human Fc-FITC. For orientation: In flow cytometry, cells or beads pass a laser one at a time.
Assay [5] addresses EGFR on NCI-H1975 cells (human) (UniProt P00533). Nature of the assay: flow cytometry on H1975 cells, dilutions 2.04e-4 to 400 nM, goat anti-human Fc-FITC; whole-cell binding, the cells also carry cMET.
Assay [6] concerns the target cMET on NCI-H1975 cells (human) (UniProt P08581). Briefly: flow cytometry competition on H1975.HGF cells, streptavidin-PE; ligand biotinylated HGF; fit value of a nearly flat control curve.
Assay [7] has as its target EGFR on NCI-H1975 cells (human) (UniProt P00533). Briefly: flow cytometry on H1975 cells, dilutions 2.04e-4 to 400 nM, goat anti-human Fc-FITC; fit value of a flat control curve, beyond the tested range.
The target is the same in assay [8]. Nature of the assay: flow cytometry on H1975.HGF cells, goat anti-human Fc-FITC; fit value of a flat control curve; the drawn table is identical to that of FIG. 23B.
The target in assay [9] is EGFR mutant C797S on BaF3 cells (UniProt P00533). Briefly: flow cytometry competition on EGFR mutant C797S-BaF3 cells, streptavidin-PE; blocked ligand biotinylated EGF; fit value of a flat control curve.
Assay [10] shares this target. Briefly: flow cytometry on EGFR mutant C797S-BaF3 cells, goat anti-human Fc-FITC; fit value of a flat control curve; the drawn table is identical to that of FIG. 23C.
Assay [11] deals with cMET on NCI-H1975 cells (human) (UniProt P08581). Briefly: flow cytometry competition on H1975 cells, streptavidin-PE; blocked ligand biotinylated HGF; fit value of a nearly flat control curve (about 6500 to 6200).
Sequence of cMET on NCI-H1975 cells (human) (P08581 25-1390): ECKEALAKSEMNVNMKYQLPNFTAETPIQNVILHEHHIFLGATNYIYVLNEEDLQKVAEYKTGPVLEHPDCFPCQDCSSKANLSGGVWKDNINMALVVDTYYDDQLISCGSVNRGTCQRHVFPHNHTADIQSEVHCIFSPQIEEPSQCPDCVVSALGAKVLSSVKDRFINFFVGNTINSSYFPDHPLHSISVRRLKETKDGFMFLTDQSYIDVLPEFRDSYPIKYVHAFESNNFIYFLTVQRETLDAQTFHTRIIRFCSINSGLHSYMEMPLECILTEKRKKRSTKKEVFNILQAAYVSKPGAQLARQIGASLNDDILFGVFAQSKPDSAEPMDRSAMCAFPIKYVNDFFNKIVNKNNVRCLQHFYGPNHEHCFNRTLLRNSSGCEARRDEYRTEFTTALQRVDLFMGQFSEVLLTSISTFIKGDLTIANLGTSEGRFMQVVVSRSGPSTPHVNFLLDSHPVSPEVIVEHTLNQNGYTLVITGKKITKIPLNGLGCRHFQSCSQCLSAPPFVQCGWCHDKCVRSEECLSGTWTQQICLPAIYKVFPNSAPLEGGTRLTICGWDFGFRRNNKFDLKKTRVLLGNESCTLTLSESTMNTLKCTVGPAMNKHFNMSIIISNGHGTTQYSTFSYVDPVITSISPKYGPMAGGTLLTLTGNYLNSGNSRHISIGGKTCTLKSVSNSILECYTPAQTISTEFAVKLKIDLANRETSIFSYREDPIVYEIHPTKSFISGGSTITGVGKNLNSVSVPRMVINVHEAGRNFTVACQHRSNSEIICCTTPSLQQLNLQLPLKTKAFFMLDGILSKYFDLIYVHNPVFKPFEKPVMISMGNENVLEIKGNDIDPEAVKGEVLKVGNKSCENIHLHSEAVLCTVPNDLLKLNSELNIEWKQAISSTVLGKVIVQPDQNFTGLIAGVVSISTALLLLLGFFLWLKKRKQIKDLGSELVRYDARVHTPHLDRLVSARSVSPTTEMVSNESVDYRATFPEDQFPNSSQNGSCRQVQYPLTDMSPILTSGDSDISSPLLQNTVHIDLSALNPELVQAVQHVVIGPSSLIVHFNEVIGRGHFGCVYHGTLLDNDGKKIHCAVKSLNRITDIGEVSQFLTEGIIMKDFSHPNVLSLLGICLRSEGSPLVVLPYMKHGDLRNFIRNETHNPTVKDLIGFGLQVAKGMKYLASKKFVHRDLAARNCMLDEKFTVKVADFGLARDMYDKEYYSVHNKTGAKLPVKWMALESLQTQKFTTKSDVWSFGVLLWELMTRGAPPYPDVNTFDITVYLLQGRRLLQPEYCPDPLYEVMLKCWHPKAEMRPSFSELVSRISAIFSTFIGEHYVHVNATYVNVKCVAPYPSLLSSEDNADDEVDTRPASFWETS
The target of assay [12] is EGFR on NCI-H1975 cells (human) (UniProt P00533). Briefly: flow cytometry competition on H1975.HGF cells, streptavidin-PE; blocked ligand biotinylated EGF; fit value of a control curve that rises instead of falling.
In a further assay the target is T1, human cMET (human, UniProt P08581 25-932).
T1 construct: Coated antigen of the cross-reactivity ELISA; also called human antigen; anti-Hu
T1 sequence (P08581 25-932): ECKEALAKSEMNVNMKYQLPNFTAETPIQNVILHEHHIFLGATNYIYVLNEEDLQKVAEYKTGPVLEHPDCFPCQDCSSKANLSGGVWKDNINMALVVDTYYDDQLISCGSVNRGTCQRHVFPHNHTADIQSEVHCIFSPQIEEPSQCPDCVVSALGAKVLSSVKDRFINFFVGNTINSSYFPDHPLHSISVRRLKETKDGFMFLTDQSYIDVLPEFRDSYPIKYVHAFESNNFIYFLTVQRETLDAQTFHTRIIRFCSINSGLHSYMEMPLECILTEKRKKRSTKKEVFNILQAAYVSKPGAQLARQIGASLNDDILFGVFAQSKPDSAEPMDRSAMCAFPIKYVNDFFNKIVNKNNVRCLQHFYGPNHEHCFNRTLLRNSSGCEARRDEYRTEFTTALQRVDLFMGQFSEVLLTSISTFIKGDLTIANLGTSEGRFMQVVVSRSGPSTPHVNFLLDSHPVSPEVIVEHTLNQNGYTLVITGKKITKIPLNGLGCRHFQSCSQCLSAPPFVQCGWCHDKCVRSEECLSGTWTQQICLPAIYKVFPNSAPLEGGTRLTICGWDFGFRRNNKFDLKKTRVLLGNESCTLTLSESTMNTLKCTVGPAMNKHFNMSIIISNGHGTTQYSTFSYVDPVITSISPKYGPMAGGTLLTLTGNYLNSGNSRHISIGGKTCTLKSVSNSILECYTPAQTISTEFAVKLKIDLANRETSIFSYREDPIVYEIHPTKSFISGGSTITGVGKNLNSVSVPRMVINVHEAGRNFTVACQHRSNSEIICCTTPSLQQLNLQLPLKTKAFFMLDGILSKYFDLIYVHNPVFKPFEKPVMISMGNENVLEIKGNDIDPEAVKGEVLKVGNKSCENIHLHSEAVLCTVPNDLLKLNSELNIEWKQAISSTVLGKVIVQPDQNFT
Briefly: binding ELISA, plate coated with human cMET at 1 ug/mL, clone at 10 ug/mL, biotinylated anti-c-Myc 9E-10 and streptavidin detection.

In another assay the target is T2, c-MET-His tag protein (human, UniProt P08581 25-932).
T2 construct: also called cMET-HIS tagged; not shown: His tag
T2 sequence (P08581 25-932 limits assumed): as the sequence (P08581 25-932) above
Nature of the assay: BLI (Probelife Gator), cMET-His on HIS probe saturated with 1H1-cMET-VHH-Fc, second antibody at 5 ug/ml. The procedure:
Briefly, a baseline was established using HIS probes in Quantitation (Q) buffer (a phosphate buffered saline solution with bovine serum albumin to decrease non-specific and background signal). The antigen (cMET-HIS tagged) to the HIS probe was added in 5 μg/ml cMET solution in Q buffer. HIS probes in Q buffer were used to return to the baseline. […] Finally, the secondary antibody was associated through HIS Probes in 5 μg/ml of antibody diluted in Q buffer.

Sequence of cMET (P08581 25-932): as above
Sequence of c-MET-His tag protein (human) (P08581 25-932 limits assumed): as the sequence (P08581 25-932) above
Method for human cMET: A high binding ELISA plate was coated with 1 μg/mL (diluted in 1×PBS) human or monkey antigens and kept at 4° C. overnight. On the next day, the plate was blocked with a blocking buffer (4% non-fat milk in 1×PBS) for 1 hour at 37° C. After blocking, the plate was washed three times with PBST. The antibody samples to be tested were diluted in PBS and then added to the corresponding wells (10 μg/mL). The plate was incubated at 37° C. at RT for 1 hour. After the incubation, the plate was washed three times with the PBST. Next, a secondary antibody (biotinylated anti-c-Myc antibody 9E-10, diluted at 1:500) was added to the wells and the plate was incubated at 37° C. at RT for 1 hour. The plate was then washed three times with PBST. Afterwards, streptavidin-RP, diluted at 1:1000, was added to each well and then the plate was incubated at 37° C. at RT for 1 hour. After the incubation, the plate was washed four times with PBST. After washing, the plate was developed by adding the Amplex reagent substrate and then the luminescent signal was measured at 530 nm and 590 nm in a SpectraMax plate reader.

For JNJ372 analog (bispecific antibody), the Kd (usually the constant that tells how readily two partners part at equilibrium) in the assay with cMET [1] stood at 0.405 nM; with EGFR, 0.689 nM; with cMET [3], 0.432 nM. Moreover, the EC50 (as a rule, the concentration that produces a half-maximal response) in [2] is 4.89 ng/mL; in [5], 0.46 nM. Besides, the EC50 (read off the curve) – broadly, the concentration at which the effect is half-maximal – in assay [4] is 3 nM.

Take Neg.control (antibody): the EC50 stood at 1.08 nM in assay [6]; 11100 nM in assay [7]; 26.4 nM in [8]; 0.0262 nM in assay [9]; 0.0262 nM in assay [10]; 0.112 nM in assay [11]. The same molecule registered an EC50 in assay [12] of 26.4 nM.

B1: 1A12 (VHH)
VHH: QVQLVESGGGLVQPGGSLRLSCAASGFTFNSYWMYWVRLAPGKGIEWVSATDTRGQNTYYTDSVKGRFTISRDNAKNMVSLQMNNLKSEDTAVYYCALGNRWGTFPNRGPGTLVTVSS
notes: it is not the VHH-Fc fusion m11; also called cMET-1A12; clone 1A12
Regarding B1, in the assay with human cMET, the binding result was “binds”.

B2: cMET-1A12 VHH-Fc (Fc fusion)
chain: QVQLVESGGGLVQPGGSLRLSCAASGFTFNSYWMYWVRLAPGKGIEWVSATDTRGQNTYYTDSVKGRFTISRDNAKNMVSLQMNNLKSEDTAVYYCALGNRWGTFPNRGPGTLVTVSS
notes: not shown: hinge and Fc of the VHH-Fc
B2: the binding result with c-MET-His tag protein is listed as “binds”.
